Values quoted from earlier work in publication PMC10860761.

Legend:
actin monomer (ATP) = actin monomer (ATP) (UniProt P60010)
actin monomer (ADP) = actin monomer (ADP) (UniProt P60010)

Sequence of Srv2/CAP CARP (P17555 369-526): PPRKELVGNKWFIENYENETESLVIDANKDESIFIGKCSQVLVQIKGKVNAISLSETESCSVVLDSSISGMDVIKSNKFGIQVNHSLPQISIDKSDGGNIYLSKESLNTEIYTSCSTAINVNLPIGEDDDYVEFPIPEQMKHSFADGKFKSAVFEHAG
Sequence of Srv2/CAP WH2 (P17555 287-336): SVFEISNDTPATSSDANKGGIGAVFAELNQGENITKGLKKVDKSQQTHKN

Kd (actin monomer (ATP))	Kd (actin monomer (ADP))	Substance
1000 nM	–	Srv2/CAP WH2 (from UniProt P17555)
–	1500 nM	Srv2/CAP CARP (from UniProt P17555)
